Assay: yeast display, Sf9 membrane polyspecificity reagent, FACS + sequencing; frameworks hold sequencing errors
In short: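 After 36–48 hours of galactose induction, yeast (Saccharomyces cerevisiae BJ5465) displaying a synthetic nanobody library were stained at 4 °C for 1 hour with 10% biotinylated, detergent-solubilized Sf9 membrane reagent. Streptavidin microbeads enriched the stained cells before FACS sorting into low and high (top ~1%) gates on anti-HA and streptavidin fluorescence. Each clone's polyreactivity label reflects its gate of origin.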

Sequence	polyreactivity (PSR sort gate)
QVQLVESGGGLVQAGGSLRLSCAASGNTFDGYDMGWYRQAPGKERELVAAITNTGASTYYADSVKGRFTISRDNAKNTVYLQMNSLKPEDTAVYYCIAQDSYPEDRHGMSYWGQGTQVTVSS	low polyreactivity
QVQLVESGGGLVQAGGSLRLSCAASGNTFDIYAMGWYRQAPGKERELVAAISRRGGSTYYADSVKGRFTISRDNAKNTVYLQMNSLKPEDTAVYYCNTYSGPYSISDYWGQGTQVTVSS	high polyreactivity
QVQLVESGGGLVQAGGSLRLSCAASGNTFDIYTMGWYRPAPGKERELVATISSGGRTNYADSVKGRFTISRDNAKNTVYLQMNSLNPEDTAVYYCAKNLRYVWWYDHFRPYGYWGQGTQVTVSS	high polyreactivity
QVQLVESGGGLVQAGGSLRLSCAASGNTFDVYVMGWYRQAPGKERELVAAINKGGGRTYYADSVKGRFTISRDNAKNTVYLQMNSLKPEDTAVYYCAAVSPKYESSYYYWGQGTQVTVSS	high polyreactivity
QVQLVESGGGLVQAGGSLRLSCAASGNTFEHYAMGWYRQAPGKERELVAAISYSGGSTYYADSVKGRFTISRDNAKNTVYLQMNSLKPEDTAVYYCNARGRASATGRRGRPDPFGYWGQGTQVTVSS	high polyreactivity
QVQLVESGGGLVQAGGSLRLSCAASGNTFFDNAMGWYRQAPGKERELVAAITFSGGSTYYADSVKGRFTISRDNAKNTVYLQMNSLKPEDTAVYYCAAVIRSRYSYYEYDYWGQGTQVTVSS	high polyreactivity
QVQLVESGGGLVQAGGSLRLSCAASGNTFFLNAMGWYRQAPGKERELVAAITSSGGSTYYADSVKGRFTISRDNAKNTVYLQMNSLKPEDTAVYYCATDRSYPPRSLNRRGPYEYWGQGTQVTVSS	low polyreactivity
QVQLVESGGGLVQAGGSLRLSCAASGNTFFRYAMGWYRQAPGKERELVAAISKSGGSTYYADSVKGRFTISRDNAKNTVYLQMNSLKPEDTAVYYCAAYSPYGRYDYWGQGTQVTVSS	high polyreactivity
QVQLVESGGGLVQAGGSLRLSCAASGNTFGFNAMGWYTQAPGKERELVAAIRRGSGRTYYADSVKGRFTISRDNAKNTVYLQMNSLKPEDTAVYYCAAAPTTGKRPGYYYWGLGTQVTVSS	high polyreactivity
QVQLVESGGGLVQAGGSLRLSCAASGNTFGGYAMGWYRQAPGKERELVATISYADSVKGRFTISRDNAKNTVYLQMNSLKPEDTAVYYCNKQFGYPWEYYSYSYDYWGQGTQVTVSS	low polyreactivity
QVQLVESGGGLVQAGGSLRLSCAASGNTFGLYAMGWYIQAPGKERELVAAIRRGGRTYADSVKGRFTISRDNAKNTVYGQMNSLKPEDTAVYYCAAYYVFLDNDYWGQGSQVTVSS	high polyreactivity
QVQLVESGGGLVQAGGSLRLSCAASGNTFGNYGMGWYRQAPGKEREFVAAITSRGTSTYYADSVKGRFTISRDNAKNTVYLQMNSLKPEDTAVYYCNARPRYKYPRYDYWVQGTQVTVSS	high polyreactivity
QVQLVESGGGLVQAGGSLRLSCAASGNTFGTYVMGWYRPAPGKERELVAAISQSGGSTDYADSVKGRFTISRDNAKKTVYLQMNSLKPEDTAVYYCAKVTWGTVWYRSPSEYDYWGQGTQVTVSS	low polyreactivity
QVQLVESGGGLVQAGGSLRLSCAASGNTFHPYAMGWYRQAPGKERELVAAITKSGGSTYYADSVKGRFTISRDNAKNTVYLQMNSLKPEDTAFYYCAAESYIEYYLKYDYWGQGSQVTVSS	low polyreactivity
QVQLVESGGGLVQAGGSLRLSCAASGNTFIYYAMGWYRQAPGKERELVAAISRSGGSTYYADSVKGRFTISRDNAKNTVYLQMNSLKPEDTAVYYCAAEATKWIGVVTMDYWGQGTQVTVSS	high polyreactivity
QVQLVESGGGLVQAGGSLRLSCAASGNTFKGYAMGSYRPAPGKERELVAAISWSGSSTYYADSVKGRFTISRDNAKNTVYLQMNSLKPEDTAVYYCAKAFKYTSPRRPYDYWGQGTQVTVSS	high polyreactivity
QVQLVESGGGLVQAGGSLRLSCAASGNTFKYYVMGWYRQAPGKERELVAAITRGGSTYYADSVKGRFTISRDNAKNTVYLQMNSLKPEDTAVYYCATDVKIPNFDYWGQGTQVTVSS	high polyreactivity
QVQLVESGGGLVQAGGSLRLSCAASGNTFLPNAMGWYRQAPGKERELVAAISNSGGSTYYADSVKGRFTISRDNAKNTVYLQMNSLKPEDTAVYYCAKRQWFPYYRGRDYWGQGTQVTVSS	high polyreactivity
QVQLVESGGGLVQAGGSLRLSCAASGNTFNDYAMGWYRQAPGKERELVASISSGGSTYYADSVKGRFTISRDNAKNTVYLQMNSLKPEDTAVYYCAAEWHYIYAYDYWGQGTQVTVSS	low polyreactivity
QVQLVESGGGLVQAGGSLRLSCAASGNTFNSYAMGWYRQAPGKEREFVAAISGSGSSTYYADSVKGRFTISRDNAKNTVYLQMNSLKPEDTAVYYCAARWRYYGSFDYWGQGTQVTVSS	high polyreactivity
QVQLVESGGGLVQAGGSLRLSCAASGNTFNVYAMGWYRQAPGKERELVAAITLSGGSTYYADSVKGRFTISRDNEKNTVYLQMNSLKPEDTAVYYCNAEEDGTDYDYWGQGTQVTVSS	low polyreactivity
QVQLVESGGGLVQAGGSLRLSCAASGNTFPGYAMGWYRQAPGKEREFVATITSNDGTTYYADSVKGRFTISRDNAKNTVYLQMNSLKPEDTAVYYSAKRLSDSWPPNWGYNYWGQGTQVTVTS	low polyreactivity

Sequence	polyreactivity (PSR sort gate)
QVQLVESGGGLVQAGGSLRLSCAASGNTFPVNAMGWYRQAPGKERDLVAAISRTGASTYYADSVKGRITISRDNAKNTVYLQMNSLKPEDTAVYYCAKYLKTPHNRRRVEALGYWGQGTQVTVSS	high polyreactivity
QVQLVESGGGLVQAGGSLRLSCAASGNTFQYYAMGWYRQAPGKEREFVAAISRRGGSTYYADSVKGRFTISRDNAKNTVYLQMNSLKPEDTAVYYCNKVIFLSQSSYSFHYAYDYWGQGTQVTVSS	high polyreactivity
QVQLVESGGGLVQAGGSLRLSCAASGNTFRFYTMGWYRQAPGKERELVAAINSSGRTNYADSVKGRFTISRDNAKNTVYLQMNSLKPEDTAVYYCAATVWVYRRSRDYWGQGTQVTVSS	low polyreactivity
QVQLVESGGGLVQAGGSLRLSCAASGNTFRIYAMGWYRQAPGKERELVAAISQSGGSTYYADSVKVRFTISRDNAKYTVYLQMNSLKPEDTAVYYCQLIRRGHDYWGQGTQVTVSS	high polyreactivity
QVQLVESGGGLVQAGGSLRLSCAASGNTFRRNVMGWYRQAPGKERELVAAINRGGSTTYADSVKGRFTISRDNAKNTVFLQMNSLKPEDTAVYYCNAEKRGQSYRFDYWGQGTQVTVSS	high polyreactivity
QVQLVESGGGLVQAGGSLRLSCAASGNTFRRYAMGWYRQAPGKEREFVAAISSSGGRTYYADSVKGRFTISRDNAKNTVYLQMNSLKPEDTAVYYCNAVSYWVRGEMDYWGQGTQVTVSS	high polyreactivity
QVQLVESGGGLVQAGGSLRLSCAASGNTFRWYVMGWYRQAPGKERELVAAITSSGSTTYYADSVKGRFSISRDNAKNTVYLQMNSLKPEDTAVYYCAARNYGPYDYWGQGTQVTVSS	low polyreactivity
QVQLVESGGGLVQAGGSLRLSCAASGNTFRYYAMGWYRQAPGKERELLAAINSRGGTTSYADSVKGRFTISRDNAKNTVYLQMNSLKPEDTAVYYCNKYIRYPFKRYGYWGQGTQVTVSS	high polyreactivity
QVQLVESGGGLVQAGGSLRLSCAASGNTFSISAMGWYRLAPGKERELVAAISLSGGSTYYADSVKGRFTISRDNAKNTVYLQMNSLKPEDTAVYYCAADVFTARRRYDYWGQGTQLTVSS	low polyreactivity
QVQLVESGGGLVQAGGSLRLSCAASGNTFSWYAMGWYRQAPGKERELVAVITSGGSTNYADSVKGRFTISRDNAKNTVYLQMNSLKPEDTAVYYCNKGLSRSYWWVDYWGQGTQVTVSS	low polyreactivity
QVQLVESGGGLVQAGGSLRLSCAASGNTFSYYAMGRYRQSPGKEREFVAAIRKSGASTYYADTVKGRFTISRDNAKNTVYLQINSLKPEDTALYYCAADGQVSYALGFDYWGQGTQVTVSS	high polyreactivity
QVQLVESGGGLVQAGGSLRLSCAASGNTFTRNAMGWYRQAPGKERELVAAITGRGGTYYADSVKGRFTISRDNAKNTVYLQMNSLKPEDTAVYYCAAASVTRRDLDYWGQGTQVTVSS	high polyreactivity
QVQLVESGGGLVQAGGSLRLSCAASGNTFTYYAMGWYRQAPGKERELVAAINIDVASTYYADSVKGRFTISRDNAKNTVYLQMNSLKPEDTAVYYCAAEVGVYPVYWYDYWGQGTQVTVSS	low polyreactivity
QVQLVESGGGLVQAGGSLRLSCAASGNTFVANDMGWYRQAPGKERELVAVISGSGGDTYYADSVKGRFTISRDNAKNTVYLQMNSLKPEDTAVYYFAADWYGRETDRSDSDYEYWGQGTKVTVSS	low polyreactivity
QVQLVESGGGLVQAGGSLRLSCAASGNTFVINTMGWYRQAPGKERELVAGISRRGTSTYYEDSVKGRFTISRDNAKNSVYLQMNSLKPEDTEVYYCAVYSEIVRYEYWGQGTQVTVSS	high polyreactivity
QVQLVESGGGLVQAGGSLRLSCAASGNTFVLYAMGWYRQAPGKERELVAAINNGGSTYADSVKGRFTISRDNAKNTVYLQMNSLKPEDTAVYYCAARYQVGVYWRRYYWGQGTQVTVSS	high polyreactivity
QVQLVESGGGLVQAGGSLRLSCAASGNTFVPYAMGWYRQAPGKERELVAAISWRGGSTYYADSVKGRFTISRDNAKNTVYLQMNSLKPEDTAVYYCAARTFYRPGLAGGYWGQGTQVTVSS	high polyreactivity
QVQLVESGGGLVQAGGSLRLSCAASGNTFVRNAMGWYRQAPGKERELVASISQSGGTTYYADSVKGRFTISRDNAKNTVYLQMNSLKPEDTAVYYCNAARYRRSPGHTKYNYWGQGTQVTVSS	high polyreactivity
QVQLVESGGGLVQAGGSLRLSCAASGNTFVRNVMGWYRQAPGKERELVAAITWRSVRTYYADSVKGRFTISRDTAKNTVYLQMNSLKPEDTAVYYCAAASASRHGEYDYWGQGTQVTVSS	low polyreactivity
QVQLVESGGGLVQAGGSLRLSCAASGNTFVSNARGWYSQAPGKEREWVAAIDSGGSTNYADSVKGRFTISRDNAKNTDYLQMNSLKPEDTAVYYCNRTSVYYYYWGQGTQVTVSS	low polyreactivity
QVQLVESGGGLVQAGGSLRLSCAASGNTFVTYTMGWYRQAPGKERELVADISSGGSTYYADSVKGRFTISRDNAKNTVYLQINSLKPEDTAVYYCAVQQAVFRSYYIYHRYYWGQGTQVTVSS	high polyreactivity
